Legend:
[1] = molecular target: human fibrinogen (human) (UniProt P02671); assay: affinity blot, dilution series of antigen and fibrinogen
[2] = molecular target: human prothrombin (human) (UniProt P00734); assay: affinity blot, dilution series of antigen and prothrombin

Row | Substance | amount of protein detected with 10 ng/ml of fibrinogen [1] [ng] | amount of protein detected with 10 ng/ml of prothrombin [2] [ng]
1 | 60 kDa fibrinogen-binding protein (Eap, extracellular adherence protein) | 0.1 | 0.1
2 | 87 kDa fibrinogen-binding protein (coagulase) | 0.1 | –

Reference: patent US20020173462A1
